Data as given in US11926678B2, “Composite polypeptide having a metal binding motif and molecular construct comprising the same” (Immunwork Inc., priority 2020, dated 2024).

T1: human CD19 on human B lymphoma cell line Raji (Homo sapiens, UniProt P15391)
T1 construct: incubating 1×10^6 CD19-expressing Raji cells with 0.001 μg/ml of each construct; endogenous in cells; host or cells: Raji (human B lymphoma cell line)
T1 sequence (P15391 20-556): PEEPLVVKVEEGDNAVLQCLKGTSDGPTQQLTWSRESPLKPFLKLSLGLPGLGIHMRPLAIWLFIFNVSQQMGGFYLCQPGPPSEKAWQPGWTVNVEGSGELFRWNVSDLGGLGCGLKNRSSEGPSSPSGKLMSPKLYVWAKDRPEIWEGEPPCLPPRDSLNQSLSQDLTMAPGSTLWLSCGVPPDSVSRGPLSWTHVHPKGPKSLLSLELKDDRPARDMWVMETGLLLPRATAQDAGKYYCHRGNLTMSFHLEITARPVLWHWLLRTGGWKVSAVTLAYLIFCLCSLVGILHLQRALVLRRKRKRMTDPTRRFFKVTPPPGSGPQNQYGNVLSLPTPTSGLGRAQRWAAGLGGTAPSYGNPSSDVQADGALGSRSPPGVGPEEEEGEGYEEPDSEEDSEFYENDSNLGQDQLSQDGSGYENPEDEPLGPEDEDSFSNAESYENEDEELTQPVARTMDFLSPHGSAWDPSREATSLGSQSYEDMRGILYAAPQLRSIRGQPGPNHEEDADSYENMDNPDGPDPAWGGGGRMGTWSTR

T2: human CD19 on human B lymphoma cell lines Ramos (Homo sapiens, UniProt P15391)
T2 construct: two molecular constructs containing MBM-1 and MBM-3 on CD19-expressing Ramos cells; endogenous in cells; host or cells: Ramos (human B lymphoma cell line)
T2 sequence (P15391 20-556): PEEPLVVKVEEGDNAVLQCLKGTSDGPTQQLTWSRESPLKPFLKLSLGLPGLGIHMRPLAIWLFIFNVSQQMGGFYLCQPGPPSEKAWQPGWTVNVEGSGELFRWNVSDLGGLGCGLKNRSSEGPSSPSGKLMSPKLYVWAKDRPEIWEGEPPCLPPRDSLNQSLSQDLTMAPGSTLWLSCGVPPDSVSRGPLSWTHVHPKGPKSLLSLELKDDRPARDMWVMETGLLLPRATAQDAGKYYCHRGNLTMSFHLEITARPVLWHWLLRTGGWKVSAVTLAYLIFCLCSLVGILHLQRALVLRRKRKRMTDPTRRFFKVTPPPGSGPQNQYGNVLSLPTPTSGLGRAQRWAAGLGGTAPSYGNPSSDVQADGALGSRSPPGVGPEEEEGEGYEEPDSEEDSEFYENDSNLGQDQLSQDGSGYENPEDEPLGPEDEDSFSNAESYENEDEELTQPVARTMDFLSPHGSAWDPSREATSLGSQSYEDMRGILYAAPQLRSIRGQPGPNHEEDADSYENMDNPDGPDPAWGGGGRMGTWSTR


How the values were obtained:
[1] = biological target: T1, human CD19 on human B lymphoma cell line Raji; assay: Cell staining (FACS) binding to CD19-expressing Raji cells; type: cell-based; settings: 0.001 μg/ml, on ice 30 minutes
Protocol: (§1) Two stabilized molecular constructs, (scFv α CD19)-Fc-MBM-1×2 DOTA bundles and (scFv α CD19)-Fc-MBM-3×2 DOTA bundles, were analyzed for their ability to bind to human CD19 on human B lymphoma cell line Raji. The assay was performed by incubating 1×10^6 CD19-expressing Raji cells with 0.001 μg/ml of each construct in PBS, 1% BSA on ice for 30 minutes, using anti-CD19 antibody (RB4v1.2), (scFv α CD19)-Fc-MBM-1×2 DOTA bundles and (scFv α CD19)-Fc-MBM-3×2 DOTA bundles as positive controls. The anti-HER2 antibody (trastuzumab) was used as a negative control. The staining of cells was analyzed by FACS (FACSCanto II; BD Biosciences) using FITC-conjugated goat anti-human IgG.Fc (diluted 1:200 in PBS/BSA) (Caltag, Buckingham, UK) at 4° C. for 20 minutes in the dark.

[2] = Examination of retro-Michael addition product, Western blot; type: in vitro ADME; settings: 37° C., 30 days, compared with stock at 4° C.
Protocol: A further confirmation of the stability of the 2-chain (scFv α CD19)-Fc-MBM-1×2 DOTA bundles, the stabilized molecular construct was incubated with glutathione or HSA and then analyzed using Western blot.
For the western blot analysis of the stabilized samples, briefly, the samples were separated on 8% SDS-PAGE gels and transferred to a poly(vinylidene fluoride) (PVDF) membrane (Millipore). The membrane blots were blocked in PBS containing 5% BSA and 0.05% Tween 20 for 1 hour at room temperature. After washing 3 times with phosphate buffered saline tween-20 (PBST) containing PBS and 0.05% Tween-20, the blots were incubated with goat anti-human IgG.Fc antibody conjugated with horseradish peroxidase (Millipore). Then the membranes were washed 3 times with PBST, and immunoreacted bands were detected using ECL™ western blotting detection reagents (Millipore) and exposed on Fujifilm (Tokyo, Japan).

[3] = Half-life in BALB/c mice after i.v. administration (serum ELISA); type: in vivo; settings: about 200 μL of 3.33 μM protein
Protocol: The measurement of half-lives of the stabilized 2-chain (scFv α CD19)-Fc-MBM-1×2 DOTA bundles was carried out in mice after i.v. administration. The (scFv α CD19)-Fc-MBM-1×2 DOTA bundles in the serum sample was observed using ELISA. 8 to 10-week-old BALB/c mice were purchased from BioLasco, Taipei, Taiwan. Mice were grouped into three mice per group, and were injected intravenously with about 200 μL of 3.33 μM protein.

[4] = system: CD19-expressing tumors (Raji xenograft); assay: Biodistribution by tissue ELISA in CD19-expressing xenograft tumor model; type: in vivo, NOD-SCID mice; settings: day 7 after i.v. injection
Protocol: For biodistribution analysis of the stabilized (scFv α CD19)-Fc-MBM-1×2 DOTA bundles in xenograft mouse model, the procedure set forth in Example 32 was used with some modifications.
Briefly, the mice were injected subcutaneously with 1×10^7 B-cell lymphoma Raji cells per mouse 2 to 3 weeks before the treatment. The mice were grouped into three mice per group, and were injected intravenously with about 200 μL of 6.65 μM labeled molecule.
Biodistribution of NOD-SCID mice were analyzed by tissue ELISA at 7 days after the administration of the stabilized 2-chain (scFv α CD19)-Fc-MBM-1×2 DOTA bundles and the anti-CD19 antibody. Briefly, the animals were sacrificed at day 7 after injection. Blood was hemospasia from the heart, and tissue samples from 11 organs were collected. Tissues samples were homogenized using homogenizer and analyzed further for measuring the concentration of the injected molecules by ELISA.

[5] = biological target: T2, human CD19 on human B lymphoma cell lines Ramos; assay: Cell staining (FACS) binding to CD19-expressing Ramos cells; type: cell-based
Protocol: as §1
These molecular constructs were also analyzed for their ability to bind to human CD19 on human B lymphoma cell lines Ramos. The assay was performed using the protocol similar to the one used in cell binding assay with Raji cells. The staining of Ramos cells was analyzed by FACS (FACSCanto II; BD Biosciences) using FITC-conjugated goat anti-human IgG.Fc, where anti-CD19 IgG is used as a positive control. The anti-HER2 antibody (trastuzumab) was used as a negative control. […]

[6] = Stability with glutathione or human serum albumin, SDS-PAGE; type: in vitro ADME; settings: 37° C., 30 days
Protocol: To evaluate the stability of the stabilized 2-chain (scFv α CD19)-Fc-MBM-1×2 DOTA bundles, the molecular constructs were placed in Tris buffer (100 mM Tris buffer at pH 7.3, 50 mM Bis-Tris buffer, and 290 mM NaCl) with glutathione or human serum albumin, and then incubated at 37° C. for 30 days.

[7] = system: CD19-expressing tumors (Raji xenograft); assay: IVIS imaging of targeting to CD19-expressing xenograft tumor; type: in vivo, NOD-SCID mice
Source text: In this Example, in vivo imaging system (IVIS) was used to investigate the targeting effect of the stabilized 2-chain (scFv α CD19)-Fc-MBM-1×2 DOTA bundles to CD19-expressing tumors in mouse xenograft model. Prior to IVIS imaging, a Dylight 680 Antibody Labeling Kit (Thermo Scientific) was used to conjugate the stabilized 2-chain (scFv α CD19)-Fc-MBM-1×2 DOTA bundles from Example 19 and the anti-CD19 antibody (RB4v1.2), according to the manufacturer's instructions.
8 to 10-week-old NOD-SCID (NOD.CB17-Prkdc^scid/JNarl) were purchased from Laboratory Animal Facility of Institute of Cellular and Organismic Biology, Academia Sinica, Taipei, Taiwan. The mice were injected intraperitoneally with 1×10^7 B-cell lymphoma Raji cells per mouse 2 weeks before the treatment. The mice were grouped into three mice per group, and were injected intravenously with about 200 μL of 6.65 μM labeled molecule. At various time points, mice were anaesthetized with isoflurane in O2 and placed in the IVIS Spectrum In Vivo Imaging System (PerkinElmer) with a supine position. […] Images were captured at indicated time points using IVIS Spectrum imager and analyzed with Living Image software.
Fluorescent images from NOD-SCID mice were captured and analyzed at 0 hour, 24 hours, 48 hours, and 72 hours after the administration of DyLight 680-conjugated proteins. […]

| Molecule | binding to Raji cells (cell staining) [1] | stability while incubated with glutathione or HSA [2] | half-life [3] | targeting of CD19-expressing tumors (tissue-to-blood ratio biodistribution) [4] | binding to Ramos cells (cell staining) [5] | stability while incubated with glutathione or human serum albumin ([6]; SDS-PAGE) | intact molecular construct still in solution without retro-Michael addition product ([6]; HSA-treated group) | intact molecular construct still in solution without retro-Michael addition product ([6]; glutathione-treated group) | penetration into tumors compared with normal organ ([7]; 24, 48 and 72 hours after i.v. injection, DyLight 680-labeled) | targeting effect to CD19-expressing tumors ([7]; mouse xenograft model) |
| --- | --- | --- | --- | --- | --- | --- | --- | --- | --- | --- |
| stabilized 2-chain (scFv α CD19)-Fc-MBM-1×2 DOTA bundles: 2-chain anti-CD19 scFv-Fc fusion with MBM-1 (ACPGHA), two Mal-Peptide 2-DOTA bundles conjugated, maleimide ring opened (conjugate) EIVLTQSPAIMSASPGERVTMTCSASSGVNYMHWYQQKPGTSPRRWIYDTSKLASGVPARFSGSGSGTDYSLTISSMEPEDAATYYCHQRGSYTFGGGTKLEIKRGSTSGSGKPGSGEGSTKGQVQLVQPGAEVVKPGASVKLSCKTSGYTFTSNWMHWVKQAPGQGLEWIGEIDPSDSYTNYNQNFQGKAKLTVDKSTSTAYMEVSSLRSDDTAVYYCARGSNPYYYAMDYWGQGTSVTVSSGGGASDKTHTCPPCPAPELLGGPSVFLFPPKPKDTLMISRTPEVTCVVVDVSHEDPEVKFNWYVDGVEVHNAKTKPREEQYNSTYRVVSVLTVLHQDWLNGKDYKCKVSNKALPAPIEKTISKAKGQPREPQVYTLPPSRDELTRNQVSLTCLVKGFYPSDIAVEWESNGQPENNYKTTPPVLDSDGSFFLYSKLTVDKSRWQQGNVFSCSVMHEALHNHYTQKSLSLSPGGGGACPGHA | bound to Raji cells substantially positively | satisfactory stability | ~193.5 h | can target CD19-expressing tumors | bound to Ramos cells substantially positively | satisfactory stability | approximately 90% | approximately 90% | significantly greater | satisfactory targeting effect |
| (scFv α CD19)-Fc-MBM-1 fusion protein: scFv specific for human CD19 (from RB4v1.2) fused to IgG1.Fc, GGGG linker and MBM-1 ACPGHA; SEQ ID NO: 13 (protein) EIVLTQSPAIMSASPGERVTMTCSASSGVNYMHWYQQKPGTSPRRWIYDTSKLASGVPARFSGSGSGTDYSLTISSMEPEDAATYYCHQRGSYTFGGGTKLEIKRGSTSGSGKPGSGEGSTKGQVQLVQPGAEVVKPGASVKLSCKTSGYTFTSNWMHWVKQAPGQGLEWIGEIDPSDSYTNYNQNFQGKAKLTVDKSTSTAYMEVSSLRSDDTAVYYCARGSNPYYYAMDYWGQGTSVTVSSGGGASDKTHTCPPCPAPELLGGPSVFLFPPKPKDTLMISRTPEVTCVVVDVSHEDPEVKFNWYVDGVEVHNAKTKPREEQYNSTYRVVSVLTVLHQDWLNGKDYKCKVSNKALPAPIEKTISKAKGQPREPQVYTLPPSRDELTRNQVSLTCLVKGFYPSDIAVEWESNGQPENNYKTTPPVLDSDGSFFLYSKLTVDKSRWQQGNVFSCSVMHEALHNHYTQKSLSLSPGGGGACPGHA | – | – | ~179.6 h | – | – | – | – | – | – | – |
